Source: patent US8846363B2, “Compositions of and methods of using sulfatases from Flavobacterium heparinum” (priority 2007, dated 2014)

B1: Flavobacterium heparinum N-sulfamidase (ORF C), recombinant, NH2-terminal truncation lacking signal sequence, SEQ ID NO: 4 (Pedobacter heparinus DSM 2366) (protein)
chain: SCTSPEKKTDRPNILMIMSDNQSWNHVGSYGDQTVRTPNMDRIAKEGVRFTNAFCSSPSCTPARAGMLTGQDIWRLEDGGNLWGVLPVKYKVYPDLLEEAGYAIGFQGKGWGPGSFEANKRPRNPAGNEFKSFGAFLKDKKEGPWCYWISSHEPHRPYVEGSGEKAGIDPNKVKVPAYLPDHISIRKDIADYYAAVETFDRELGEALDQLKASGELDNTVIVVCSDNGWQMPRGLANLYDFGTHVPLIISWPGKFKQDVVADNLVTLNDLAPTFLQLGKVPVPADMTGKSLLPIVEAGKKDEKPRDYVVLGRERHAFVRRHGLGYPGRAIRTKDYLYIKNYEPNRWPAGDPPFYGDIDPYMFNWPGETKYYLIEHKDDPKVKSFFELGMGKRPAEELFDINKDPDELHNLAALPEYQKIKQELVAKLRNYLVATKDPRETNGNIQIWDTAAYFSEIDKTPKPSKEMQKRFKLDSSYNYLK
notes: E. coli BL21(DE3), N-terminal 6xHis removed by thrombin
B2: Flavobacterium heparinum 6-O-sulfatase (ORF B), recombinant, NH2-terminal truncation lacking signal sequence, SEQ ID NO: 2 (Pedobacter heparinus DSM 2366) (protein)
chain: TLMSCQQPKPAESAKRPNIVFIMTDDHTIQAISAYGSKLVKTPNLDRIANEGMLFNNCFVTNAVCGPSRATILTGKYSHLNGLTDNSKVFDSTQVIYPQLLKKAGYQTAMIGKWHLGSTPMGFDYYSILPNQGQYYQPEFIENGHLVKEKGYVTDLITDKAIGFLEKRDHDKPFLMIYQHKAPHRNWLPAPRHLGMFDDTVFPEPANLLDDFKGRGRAAKEQLMNISTDMWPAWDLKMLSTAQLDSMAKLPVSPKFKDAKGDDYQQANDPSLDKARFFEVYNRMTDAEKVQWRKVYDKRVAEFKRLNPKGADLVRWKYQQYMRDYLACVVSVDENVGRLMDYLKKIGELDNTIIVYTSDQGFYLGEHGYFDKRFMYDESFRTPLMVRYPPSVKAGSVSNAFAMNLDFAPTLLDYAGVKIPADMQGLSLRPVLDNAGKSPENWRKAVYYHYYEFPSWHMVKRHYGIRTERYKLIHFYNDIDEWELYDMQKDPHEMQNLYNDKAYEPIIKDLKVQMKKLQVQYKDTNPTEAL
notes: as for B1

Legend:
[1] = CE-LIF detection of sequentially degraded oligosaccharides; type: biochemical; settings: after Δ4,5 glycuronidase treatment of ΔUHNSIHNSIHNS
Method: The APTS derivitization protocol was adapted from Chen et al. (Chen F. T. A., and Evangelista R. A. (1995) Analytical Biochemistry 230, 273-280). Briefly, 2 μl of 100 mM 9-aminopyrene-1,4,6-trisulfonate (APTS) in 25% acetic acid (v/v) were mixed with 10 μl of 1M sodium cyanoborohydride in tetrohydrofuran and 1 μmol of saccharide. The reaction mixture was incubated at 75° C. for 2 hr and was diluted 1:100 prior to CE analysis. CE-LIF was performed on a Beckman Coulter ProteomeLab PA 800 with 488 nm argon LIF module. Samples were loaded onto a N—CHO capillary (50 μm I.D.×65 cm total length) using 0.5 psi of pressure at the anode for 20 sec. Electrophoretic separations were performed using a 20 kV potential in a 100 mM sodium borate, pH 10.2 buffer for 15 min at 25° C. Fluorescence emission spectra were collected using a 520 nm narrow band filter.

[2] = substrate: CC(=O)N[C@H]1[C@H](Oc2ccc3c(C)cc(=O)oc3c2)O[C@H](COS(=O)(=O)O)[C@@H](O)[C@@H]1O; assay: Steady-state kinetics, coupled 6-O-sulfatase/β-glucosidase fluorimetric assay with 4-MU-GlcNAc,6S; type: biochemical, Flavobacterium heparinum (Pedobacter heparinus)
Text: Recombinant protein expression in the E. coli strain BL21(DE3) and one-step affinity purification by nickel chelation chromatography were as described for 2-O-sulfatase (Myette et al., 2003 J Biol Chem 278, 12157-12166). The prediction of NH2-terminal signal sequences and putative cleavage sites for the two respective proteins was made by the Von Heijne computational method (Nielsen et al., 1997 Protein Eng 10, 1-6.). Engineering and expression of these truncated proteins (minus signal sequences) were as described above for the full-length genes with the exception of substituting the 5′ primers which were used in the original PCR amplification step. These internal primers included 5′ TCTAGACATATGTCTTGCCAGCAGCCTAAAC 3′ (for ORF B; SEQ ID NO: 15) and 5′ TCTAGACATATGTCCTGCACTTCGCCGGAA 3′ (for ORF C; SEQ ID NO: 16), with the Nde 1 site underlined. As such, the ORF B gene sequence begins at Met 18 (FIG. 1). Likewise, the ORF C gene sequence begins at Ser 21 (FIG. 2). Removal of the 6×His tag was achieved by site-specific protease cleavage using the thrombin cleavage capture kit (Novagen, San Diego, Calif.). Proteolysis conditions were generally as described for other recombinantly expressed flavobacterial heparin degrading enzymes. Following concentrating the enzymes by ultrafiltration, cleaved proteins were dialyzed overnight against 4 liters of 50 mM Tris, pH 7.5 and 0.1 M NaCl, 4° C., using a 3 mL slide-a-lyzer cassette with a 10,000 molecular weight cutoff (MWCO) (Pierce Chemical, Rockland, Ill.).
Coupled Enzyme Assay for the Determination of Biochemical Reaction Conditions and Steady-State Kinetics
Indirect measurement of enzyme activity was also made using a fluorimetrically-based plate assay in which the prerequisite desulfation of the appropriate glucopyranoside 1→4 methlybelliferone substrate by either the 6-O-sulfatase or N-sulfamidase was coupled to the glucosidase-mediated hydrolysis of the stereo-specific 1→4 glycosidic linkage between the pyranose ring and the adjoining fluorophore. Release of the free fluorophore (4-MU) was monitored spectroscopically as described above for the arylsulfatase assay using 4-MU sulfate. The two sulfatase assays differed in the choice of substrate in accordance to their specificity as well as the glucosidase added during the second, […] step. For the 6-O-sulfatase, the hydrolysis of the substrate 4-MU-β-D-GlcNAc,6S at the 6-OH position was coupled to β-glucosidase purified from sweet almonds (MP Biomedicals, Solon, Ohio, Catalog No. 195197). Likewise, N-sulfamidase hydrolysis of 4-MU-α-D-GlcNS at the 2-amino position was coupled to α-glucosidase (MP Biomedicals, Catalog No. 153487). […] The presumption of the first (sulfatase) activity being the rate-limiting step was established experimentally. Reaction conditions were optimized to satisfy three related criteria: 1) linear readout of fluorescent signal which is directly proportional to sulfatase activity; 2) quantitative release of 4-MU by glucosidase activity under every biochemical condition examined and; 3) negligible fluorescent quenching of the free chromophore.
For the 6-O-sulfatase/β-glucosidase assay, the standard reaction conditions included 2 μM recombinant enzyme, 50 mM sodium acetate buffer, pH 5.5, and 5 mM CaCl2 in a 20 μl reaction volume. 4-MU-GlcNAc,6S substrate concentration was varied from 0.1-2 mM. 2 μL of enzyme were added to each well of a microtiter plate (prechilled on ice), plate gently vortexed, and contents of each well spun down for 1 minute at 500×g, 4° C. The assay was initiated by transferring the 96 well plate to a heating block prequilibrated at 30° C. Sulfatase incubation (first enzyme) was carried out at 30° C. for 20 minutes, after which enzyme activity was inactivated by heat denaturation (95° C., 10 minutes). In the second enzyme (glucosidase) step, the microtiter plate was once again chilled on ice. […]

[3] = other: Addition: 0.5 mM Ca^+2, pH 5.5, 30° C.
[4] = other: Addition: 5 mM Ca^+2, pH 5.5, 30° C.
[5] = other: Addition: none, pH 5.5, 30° C.

Molecule | desulfation of oligosaccharide at the non-reducing end [1] | Km [2, 3] | kcat [2, 3] | Km [2, 4] | kcat [2, 4] | Km [2, 5] | kcat [2, 5]
B1 | does desulfate some oligosaccharides in an exolytic fashion |  |  |  |  |  | 
B2 |  | 217 µM | 0.055 s⁻¹ | 327 µM | 0.113 s⁻¹ | 146 µM | 0.0417 s⁻¹
